Data reported in patent US5185323A, “Suppression of megakaryocytopoiesis employing platelet factor 4 antimaturation factor” (Temple University, priority 1988, dated 1993).

How the values were obtained:
Assay type in all cases: cell-based
[1] = system: normal human erythroid colony forming units (CFU-E); assay: Erythroid colony formation (CFU-E) in plasma clot culture (specificity assay); details: concentrations of PF4 which consistently inhibited megakaryocyte colony formation; FIG. 4
Excerpt: FIG. 4 graphically illustrates the effect of highly purified platelet factor 4 (PF4) on clonogenicity of normal human erythroid colony forming units (CFU-E) in plasma clot culture in the absence of accessory marrow immunocytes. Isolated bone marrow mononuclear cells (MNC) were depleted of adherent monocyte-macrophages and lymphocytes, as detailed in the Examples. After seven days in culture, plates were harvested and fixed and CFU-E detected by benzidine staining. Results of three separate experiments, each performed in quadruplicate culture plates, are shown. The effect of purified protein on inhibition of erythroid colony formation was tested.

[2] = system: normal human megakaryocyte progenitor cells; assay: Megakaryocyte colony formation in plasma clot culture, unseparated marrow MNC (proliferation assay); details: control ~11 colonies
Protocol: FIG. 1 graphically illustrates the effect of highly purified platelet factor 4 (PF4) on clonogenicity of normal human megakaryocyte progenitor cells in plasma clot culture. Bone marrow mononuclear cells (MNC) were isolated by density gradient sedimentation and then suspended in the appropriate culture medium, to which was added PF4 in the amounts indicated. The cell suspensions were plated, and cultured for twelve days at 37° C. in a humidified environment containing 5% CO2, and resulting megakaryocyte colonies were then enumerated in situ with an indirect immunofluorescence assay using a polyspecific antiplatelet glycoprotein antiserum as probe. Aggregate results (mean±S.D.) of five separate experiments are shown. Numbers at top of bars indicate p value in comparison to control (CONT.).
Megakaryocyte colonies were cloned in plasma clot cultures as previously described (e.g., Blood 61: 384-9, 1983). […]
Megakaryocyte colonies were enumerated by indirect immunofluorescence assay utilizing a rabbit anti-human platelet glycoprotein antiserum as a megakaryocyte probe (ibid.). […] A cluster of three or more intensely fluorescent cells was counted as one colony. […]
To determine if PF4 could modify megakaryocyte colony formation in vitro, a screen assay was performed by adding various amounts of pure protein to unseparated marrow MNC. […] In the presence of 2.5 μg/ml of PF4, ~7 colonies were counted. […]

[3] = system: human megakaryocyte progenitor cells; assay: Megakaryocyte colony formation in co-culture with autologous T lymphocyte subsets
Excerpt: (§1) Megakaryocyte colonies were cloned in plasma clot cultures as previously described (e.g., Blood 61: 384-9, 1983). The cell population cultured consisted of either unseparated high density marrow mononuclear cells (MNC), or MNC depleted of adherent monocytemacrophages (MO) and T lymphocytes using methods previously reported (e.g., J. Immunol. 2915-2925, 1987). To provide essential growth factors, all cultures were supplemented with normal human AB serum (30% v/v) derived from the platelet-poor plasma of a single donor.
(§2) Megakaryocyte colonies were enumerated by indirect immunofluorescence assay utilizing a rabbit anti-human platelet glycoprotein antiserum as a megakaryocyte probe (ibid.). […] A cluster of three or more intensely fluorescent cells was counted as one colony. Unless otherwise stated, all data are reported as the mean± S.D. of colonies enumerated.
Since the majority of marrow T lymphocytes are of the suppressor type, and PF4 is described in the prior art as inactivating these cells, the results obtained in Examples IA and IB were unexpected. In fact, it was anticipated that colony formation might be increased because of unopposed T helper activity. Putative progenitor cell-T cell-PF4 interactions were accordingly studied. Control target cells, depleted of adherent monocytes and T lymphocytes were cloned in plasma clots under standard conditions (Table 3). Aliquots of these target cells were also cloned in the presence of either CD4^+ helper, or CD8^+ suppressor T cells alone, or T effector cells plus PF4 at two different concentrations, 2.5 and 25 μg/ml.

[4] = system: human megakaryocyte progenitor cells; assay: Megakaryocyte colony formation in plasma clot culture, MNC depleted of adherent monocyte-macrophages and T lymphocytes; details: PF4 25 μg/ml; four experiments (FIG. 3)
Excerpt: FIG. 3 graphically illustrates the effect of highly purified platelet factor 4 (PF4) on normal human megakaryocyte colony formation in vitro in the absence of accessory marrow immunocytes. Isolated bone marrow mononuclear cells (MNC) were depleted of adherent monocyte-macrophages and lymphocytes and treated as detailed in the Examples. Each line represents the result of a single experiment performed in quadruplicate culture plates. p values in comparison to control are indicated for each experiment.
as §1
as §2, with “enumerated. […]” for “enumerated.”

B1: platelet factor 4 (protein, UniProt P02776 32-101, looked up)
Platelet factor 4: EAEEDGDLQCLCVKTTSQVRPRHITSLEVIKAGPHCPTAQLIATLKNGRKICLDLQAPLYKKIIKKLLES
notes: Megakaryocyte/platelet-specific α-granule protein purified from outdated human platelets by heparin-agarose chromatography, >95% pure
inhibition of erythroid colony formation units (CFU-E) [1]: no inhibition | megakaryocyte colonies enumerated ([2]; PF4 2.5 μg/ml, not significant (p>0.05), aggregate of five experiments): ~ 7 colonies per 2×105 MNC plated | megakaryocyte colonies enumerated ([2]; PF4 25 μg/ml, p<0.007, aggregate of five experiments): five | dependence of colony suppressive effect on T lymphocytes [3]: indifferent to the presence of T lymphocytes | effect on colony formation in presence of CD4+ (helper) cells ([3]; PF4 2.5 μg/ml): unchanged | megakaryocyte colonies enumerated (mean ± SEM) ([3]; Study 1, C/T4 2:1 + PF4 2.5 μg/ml, control 7 ± 2, C/T4 alone 11 ± 0): 8 ± 1 colonies | megakaryocyte colonies enumerated (mean ± SEM) ([3]; Study 1, C/T8 2:1 + PF4 2.5 μg/ml, control 7 ± 2, C/T8 alone 6 ± 1): 18 ± 2 colonies | megakaryocyte colonies enumerated (mean ± SEM) ([3]; Study 2, C/T4 2:1 + PF4 2.5 μg/ml, control 4 ± 1, C/T4 alone 3 ± 1): 5 ± 1 colonies | megakaryocyte colonies enumerated (mean ± SEM) ([3]; Study 3, C/T8 2:1 + PF4 2.5 μg/ml, control 11 ± 3): 7 ± 2 colonies | megakaryocyte colonies enumerated (mean ± SEM) ([3]; Study 3, C/T8 2:1 + PF4 25 μg/ml, control 11 ± 3, p < .05): 1 ± 0 colonies | megakaryocyte colonies enumerated (mean ± SEM) ([3]; Study 4, C/T4 2:1 + PF4 2.5 μg/ml, control 116 ± 6, C/T4 alone 141 ± 22): 122 ± 29 colonies | megakaryocyte colonies enumerated (mean ± SEM) ([3]; Study 4, C/T4 2:1 + PF4 25 μg/ml, control 116 ± 6, C/T4 alone 141 ± 22, p < .05): 8 ± 1 colonies | megakaryocyte colonies enumerated (mean ± SEM) ([3]; Study 4, C/T8 2:1 + PF4 2.5 μg/ml, control 116 ± 6, C/T8 alone 163 ± 13, p < .05): 87 ± 15 colonies | megakaryocyte colonies enumerated (mean ± SEM) ([3]; Study 4, C/T8 2:1 + PF4 25 μg/ml, control 116 ± 6, C/T8 alone 163 ± 13, p < .05): 13 ± 2 colonies | megakaryocyte colonies enumerated (mean ± SEM) ([3]; Study 5, C/T4 2:1 + PF4 25 μg/ml, control 33 ± 6, C/T4 alone 39 ± 4, p < .05): 3 ± 1 colonies | megakaryocyte colonies enumerated (mean ± SEM) ([3]; Study 5, C/T8 2:1 + PF4 2.5 μg/ml, control 33 ± 6): 33 ± 4 colonies | megakaryocyte colonies enumerated (mean ± SEM) ([3]; Study 5, C/T8 2:1 + PF4 25 μg/ml, control 33 ± 6, p < .05): 3 ± 1 colonies | effect on colony formation in presence of T cells ([3]; high concentration of PF4): highly significant decrease in colony formation | effect on megakaryocyte colony formation [4]: greatly inhibited in each of the experiments | mean inhibition of megakaryocyte colony formation [4]: ~ 78%
